{"source": "paper PMC7423246", "about": "“A Peptide–Lectin Fusion Strategy for Developing a Glycan Probe for Use in Various Assay Formats” (Chemosensors (Basel, Switzerland), 2019)", "binders": {"B1": {"name": "Pseudomonas fluorescens agglutinin (PFA) (natural protein)", "chain": "MSKYAVANQWGGSSAPWHPGGTWVLGARDNQNVVAIEIKSGDGGKSFTGTMTYAGEGPIGFKAQRTGQNQYNVENQWGGNDAPWHPGGKWVIGGRDNQNVIALSVTSSDGGKNLSGTNTYANEGPIGFRGQIEVSHPQAPF", "modifications": "not checked"}}, "target": "soy bean agglutinin conjugated to HRP (soy bean), P05046", "sequence (P05046 33-285)": "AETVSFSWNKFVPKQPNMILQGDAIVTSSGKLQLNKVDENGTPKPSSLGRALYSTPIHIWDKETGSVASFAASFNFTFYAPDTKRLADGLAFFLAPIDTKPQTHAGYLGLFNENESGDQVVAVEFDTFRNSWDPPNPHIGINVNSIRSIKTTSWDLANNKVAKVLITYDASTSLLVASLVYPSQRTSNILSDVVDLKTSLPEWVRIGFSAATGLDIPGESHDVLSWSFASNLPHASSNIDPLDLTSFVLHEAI", "assay": "ELISA; soy bean agglutinin conjugated to HRP exposed to serial dilutions of PFA; colorimetric signal with TMB"}
{"binder": "B1", "values": [{"measurement": "Kd", "value": 4, "unit": "nM"}]}
